Source: publication PMC9427789, “Prediction of the structural interface between fibroblast growth factor23 and Burosumab using alanine scanning and molecular docking” (Scientific Reports, 2022)
Residue numbers refer to the chain shown, from its start. In names and notes the source's numbering stands. Each block holds one binder with its values, some of them ahead of it.

Key:
Settings in all cases: both partners purified
[1] = molecular target: T1, His-SUMO-FGF23 (N-terminal domain of human FGF23, wild type) (Homo sapiens, UniProt Q9GZV9); assay: ELISA; spot-check ELISA: FGF23 coated at 2 µg/mL on Maxisorp plates (4 °C overnight), Burosumab or its alanine mutants at two concentrations (0.04 and 1.2 µg/mL), room temperature 2 h, anti-human IgG H&L-HRP, A450; fold change from A450 against wild-type Burosumab
T1 construct: FGF23, human, N-terminal domain; also called wild-type FGF23; source: E. coli BL21(DE3), purified (Ni-NTA); not shown: His, N-terminal, kept; SUMO, N-terminal, kept

[2] = molecular target: T2, His-SUMO-FGF23 Y124A (N-terminal domain of human FGF23) (Homo sapiens, UniProt Q9GZV9, Y124A); assay: ELISA; indirect ELISA: FGF23 or its mutants coated at 2 µg/mL on Maxisorp plates (4 °C overnight), Burosumab or its variants three-fold serially diluted in PBS from 9 µg/mL, room temperature 2 h, anti-human IgG H&L-HRP, A450; fold change from Kd values against the wild type
T2 construct: FGF23, human, N-terminal domain; source: E. coli BL21(DE3), purified (Ni-NTA); not shown: His, N-terminal, kept; SUMO, N-terminal, kept

[3] = molecular target: T3, His-SUMO-FGF23 H117A (N-terminal domain of human FGF23) (Homo sapiens, UniProt Q9GZV9, H117A); assay: as above
T3 construct: FGF23, human, N-terminal domain; source: E. coli BL21(DE3), purified (Ni-NTA); not shown: His, N-terminal, kept; SUMO, N-terminal, kept

[4] = molecular target: T4, His-SUMO-FGF23 R160A-R161A (N-terminal domain of human FGF23) (Homo sapiens, UniProt Q9GZV9, R160A | R161A); assay: as above
T4 construct: FGF23, human, N-terminal domain; also called combined R160A and R161A; double alanine mutant; source: E. coli BL21(DE3), purified (Ni-NTA); not shown: His, N-terminal, kept; SUMO, N-terminal, kept

[5] = molecular target: T1, His-SUMO-FGF23 (N-terminal domain of …); assay: as above

T1 sequence (Q9GZV9 25-204): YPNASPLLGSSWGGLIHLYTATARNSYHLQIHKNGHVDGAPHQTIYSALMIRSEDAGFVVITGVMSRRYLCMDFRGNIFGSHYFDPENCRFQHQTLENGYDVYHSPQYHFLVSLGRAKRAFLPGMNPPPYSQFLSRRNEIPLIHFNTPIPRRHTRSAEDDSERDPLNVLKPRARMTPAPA
T4 sequence (Q9GZV9 25-204 R160A/R161A): as the sequence (Q9GZV9 25-204) above, with R136A, R137A counted along it
T2 sequence (Q9GZV9 25-204 Y124A): as the sequence (Q9GZV9 25-204) above, with Y100A counted along it
T3 sequence (Q9GZV9 25-204 H117A): as the sequence (Q9GZV9 25-204) above, with H93A counted along it

B1: Burosumab (wild type) (antibody, V domains shown)
VH: QVQLVQSGAEVKKPGASVKVSCKASGYTFTNHYMHWVRQAPGQGLEWMGIINPISGSTSNAQKFQGRVTMTRDTSTSTVYMELSSLRSEDTAVYYCARDIVDAFDFWGQGTMVTVSS
VL: AIQLTQSPSSLSASVGDRVTITCRASQGISSALVWYQQKPGKAPKLLIYDASSLESGVPSRFSGSGSGTDFTLTISSLQPEDFATYYCQQFNDYFTFGPGTKVDIK
notes: heavy chain of Burosumab; light chain of Burosumab; Whole antibody, detected with anti-human IgG H&L. The results say HEK293T, the methods HEK293-F FreeStyle; Residue numbers are Chothia; also called Crysvita; WT Burosumab; source: HEK293-F FreeStyle, transiently transfected, purified (Protein A agarose)
binding result [1]: binds
fold decrease in binding against wild-type FGF23 [2]: ~50 fold
fold decrease in binding against wild-type FGF23 [3]: > 100 fold
fold decrease in binding against wild-type FGF23 [4]: 7 fold

B3: Burosumab VH:D98A (antibody, V domains shown)
VH: B1 VH with D102A
VL: B1 VL
notes: as the heavy chain of m1; as the light chain of m1; source: HEK293-F FreeStyle, transiently transfected, purified (Protein A agarose)
fold decrease in binding against wild-type Burosumab [1]: 2.62 fold

B4: Burosumab VL:D50A (antibody, V domains shown)
VH: B1 VH
VL: B1 VL with D50A
notes: as the heavy chain of m1; as the light chain of m1; also called D50A (LCDR2); source: HEK293-F FreeStyle, transiently transfected, purified (Protein A agarose)
binding result [1]: no binding
fold decrease in binding against wild-type Burosumab [1]: > 100 fold

B6: Burosumab VH:V97A (antibody, V domains shown)
VH: B1 VH with V101A
VL: B1 VL
notes: as for B3
fold improvement of binding affinity against wild-type Burosumab [1]: 1.2 fold

More lines, now with the values ahead:

fold improvement of binding against wild-type Burosumab [5]: 3.7 fold
B2: Burosumab variant with combined VH:V97A and VL:A32S mutations (antibody, V domains shown)
VH: B1 VH with V101A
VL: B1 VL with A32S
notes: as the heavy chain of m1; as the light chain of m1; also called combined Burosumab variant; double mutant; source: HEK293-F FreeStyle, transiently transfected, purified (Protein A agarose)

fold decrease in binding against wild-type Burosumab [1]: 2.32 fold
B5: Burosumab VL:F96A (antibody, V domains shown)
VH: B1 VH
VL: B1 VL with F95A
notes: as the heavy chain of m1; as the light chain of m1; also called F96A (LCDR3); source: HEK293-F FreeStyle, transiently transfected, purified (Protein A agarose)

fold improvement of binding affinity against wild-type Burosumab [5]: 1.6 fold
B7: Burosumab VL:A32S (antibody, V domains shown)
VH: B1 VH
VL: B1 VL with A32S
notes: as for B3
